Measured values taken from publication PMC6973313 (mAbs, 2020).

Molecular target: T1, Mouse GIPR extracellular domain (residues 19 to 134) (mouse, UniProt Q0P543 19-134)
T1 sequence: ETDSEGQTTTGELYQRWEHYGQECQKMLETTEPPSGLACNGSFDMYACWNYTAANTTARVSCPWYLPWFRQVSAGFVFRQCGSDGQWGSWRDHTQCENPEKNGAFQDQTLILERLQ
Assay: crystal structure

binding result: binds
B1: Fab of mAb1 (Fab1) (Fab, V domains shown)
VH: DVQLVESGGGLVQPGGSRKLSCAASGFTFSSFGMHWVRQAPEKGLEWVAYISSGSSTIYYADTVKGRFTISRDNPKNTLFLQMTSLRSEDTAMYYCARGKYPTWIAYWGQGTLVTVSA
VL: DIVMTQSPSSLTVTAGEKVTMSCKSSQSLLNSGNQKNYLTWYQQKPGQPPKLLISWASTRDSGVPDRFTGSGSGTDFTLTISSVQAEDLAVYYCQNDYSYPLTFGAGTKLELKR
